This assay addresses FLAG-HA-Twi1p-WT (Tetrahymena thermophila) (UniProt Q8MXZ9). Nature of the assay: co-IP.

Consider Giw1p (natural protein), for which the amount co-precipitated after 100 μg/mL RNase A, against the untreated lysate turned out to be 60%.

Source of the values: paper PMC2845462.
